Results taken from the DeepSol protein solubility set.

assay: soluble on expression in E. coli; label from the status in PepcDB or PDB records

| Sequence | soluble on expression in E. coli |
| --- | --- |
| MPPTGIFFNVNGKDIKEENVDPELTLAYYLRNKLGLRGTKLGCEEGVCGSCTVVLGTWDDSLNKAVYSAVNACLVPLFHVHKTFVITVEGVGSRDKIHPIQDRMARGHAVQCGFCSPGFVMSAYALLRNHPNPTIEQINAAIRANLCRCTGYRPILEALYSFSSSGGGCCGGKKAGAGCCKDLSSEDEAYEKLTSFNDFPEYDPSQEIIFPPSLRIFVDSENPVTLKGDRIELLLPKSIEQFKEFKKDRTVISSGLITRFIATRNPKEFSQKWITTKYVKEFNEVIENPETVVIGAAVNIQKMSDILSRSLSQNIGKEVDAFIKKFSSPQIANFATWTGGIVSGAKSSISVSDLLLLFNVLNAKLTLLTDSGDLTQVNIEEFVEKKLFATNTIVNTVFSSSITGQLFCLKLGETSEQDSTSFNFAALVGNNISRIFVGLGGPPKRLTSLEEHIFALKNLDVPDLCKTSGMGENKNIKIALTRLSKFMKNVEKTAETVDGLNYLQYFKPTERKSVGRPLANYFNERAITGEALYVNDIQTYNPVHLGFVLSTVPHAEILSIDATEALKLEGVVGFFGASDVPGNNSPGLQISNMNLPDDATIFADKKVESVGQVVGVIAANDVLLARRAAKLVKLEYKELPALVELKDAIVAKSLLGKVRHFGKSEYLVNESLVHSYKVLEGESSLGSQEHFYLETQSSLNYRIVHCSTQGTSFTQLMVAETMKIPAHKIIVKTKRMGGAFGGKLNNASWIACICSVVAKKLNRPTYGVGINSDGKVQGIHHQAWLNGGWSKDHTEGVTMVMGQFVDDVYNMGTVRYDGYPVKTNTNSNTAFRGYGNPQAKLVSEGVMRRIAREVGKSTEEVKKLNFAFEGEKRYLSGNIYSDAHIECWEYCTRWSDFEKRKETIENFNKTSKIVKRGIAMSSVRLALSHPGPPGHGVASLMINLDGSIQLSIGGTEMGQGLNQKMLQVCSEALKRPIDTITIVDCSTDKITNAPETGASHNADTNGLAVLACCERIMSRLQPIIDKNDGDWEKSIRDAYGAYVPLQCTEYGSVDREKLSIGEFEYPYNTTGACAVEMEVDTMTGYNRLLRVDIVMDVGESLNPAIDIGQIEGAFMQGYGLVTCEKITFNKETGQLNQNSAGQYKIPKSSDVPKDFRVKLLGINKANGAKVYSSKGIGEPPLMMSCGAVHSCIMNCIDDWRKENGIDKFVDTISPLSADKIQELCSCNN | not soluble |
| MPRLVVNSIYASGAQYQGSSSKLYVNVSNLGTENAYNVLIQVYVNGKVYGSTTVSEIKAGASDNVSINWVPPTSGKVSVYATASVNSEPRSFVTAGALTQTVSVNPLEHHHHHH | not soluble |
| MPSKLALIQELPDRIQTAVEAAMGMSYQDAPNNVRRDLDNLHACLNKAKLTVSRMVTSLLEKPSVVAYLEGKA | soluble |
| MPSKLFSRRSFVTTACAGLAALALPLPAVALTEARAASLVNEVVTEINRVIASGKSENAMIRDFEKLFVRYGDVPIMARYALGPDARTASPAQLKSFTQAFQGYISRKYGKRFREFIGGEVTVKTARKIKAGYEVKTSVKLQGQAPFDVTFLVSDKSGKDKFFNMFIEGVNLLLTERTEIGSMLDRRKGDLNALIRDLASAGLEHHHHHH | soluble |
| MPSSPAERYAQALASGQFMPDEAQAQAVQELERVWQELLSRYKASKKAFRRFRRQTSPKGVYMWGGVGRGKTWLMDQFYDSIPFRRKTRMHFHHFMQHVHRELNKLSGQRNPLDLVADQIYKDAVIICFDEFFVSNVTDAMILSDLFQKLFNRGVTLVATSNIAPDGLYKNGIHRDRFLPTIELVQKNCTILNVDAGVDYRLRVLKQAQLFKHPLTDDAKIWMSQRFSAITRSQIVSQQPITINNRVVETLGHTEDVLWCEFSELCLKPRSPADFIEIANIYNTVLVSNVPHLTDYLSEGTRRFIYLVDEFYDRGVKLLLTSQDSIIEIYEGEKLAFEIERTRSRLLEMQSDEYLHSLEHHHHHH | soluble |
| MPSSTSSSLENLSVSVCAAGDSAAYQRNSVFGDDVVIVAAYRSPLCKAKRGGLKDTYPDDILAPVLKALIEKTNINPAEVGDIVVGSVLGAGSQRASECRMAAFYAGFPETVPVRTVNRQCSSGLQAVADVAAAIKAGFYDIGIGAGLESMTANPMAWEGSVNPKVKTMAQAQDCLLPMGITSENVAQKFSITRQEQDQAAVGSHRKTAAATAAGRFKDEIIPIKTKIVDPKTGDEKPVTISVDDGIRPGTSLADLAKLKPVFRKDGSTTAGTSSQVSDGAGAVLLMKRSIALQKGLPILGVFRTFAAVGVPPSIMGIGPAVAIPAAVKAAGLQIDDIDLFEINEAFASQFVYCQKKLEIDPQKINVNGGAMAIGHPLGATGARCVATLLHEMKRRGRDCRFGVVSMCIGTGMGAAAVFERGDACDELCNAKAKHHHHHH | soluble |
| MPTLKYLPHYPPALVQQAQALFDSGELGALLRSKYPDGHDVQTDKALYQFVSALKQRHLKNAPLPAKVLYDNQQHPLKGTLGTNTTISRVQGGRLKSKSEIRIASLFRELPLPFLQMIVVHELAHLKVRDHDKAFYQLCCHMQPDYHQLEFDLRLWLNWREQRRNLEHHHHHH | soluble |
| MPTPARKTQKGGRKRRVNGVEEEILYIIGFFQDDSSIGLSTFFTKFCILYQDSKSNFRVLNLEMFSPENLNARKKMSQEKDTPSH | not soluble |
| MPTPLTHWSRWMQTASRFVDEYPNFSVLPPPPLRAPPPHSKISDRRSV | not soluble |
| MPTPPVSVLVAQMGEGPAPLYARVKQMIIQQIDNGSWPPHHRVPSESELVNELGFSRMTINRALRELTAEGLLVRMQGVGTFVAEPKGRSALFEVNNIADEIAARGHQHSCQVITLAEEAAGSERALALDMREGQRVFHSLIVHFENGVPVQIEDRYVNAAIAPDYLKQDFTRQTPYAYLSQVAPLTEGEHVVEAILAEPEECTLLQIDRGEPCLLIRRRTWSGRQPVTAARLIHPGSRHRLEGRFSK | not soluble |
| MPTVSLGRFQKEDGINVPDWIDVVRRPSGGRALLHHREITYCLAVPKKINFGKLSVLEFHRLVHSLIRDALVEAGLHAELSSKRRGNTALCFDAPSRYEIVINGVKVVGSAQFRTAESIVEHGSIVLKQDIDL | soluble |
| MPVLTSGQQERKSKQRKIRNSEYYDMEGTFDRLYAESKKDKTFNHLMEIIESEENIKLAYRTIKKNTGSDTSGVDKRTIADLAKLSEEEYVRLIRKQFSNYHPGPVRRVEIPKPNGKTRPLGIPTIVDRIVQQCILQVMEPICEAKFSENSNGFRPNRSAETAIAQCMRLIQVQHLYHVVDLDIKGFFDNISHTKLIRQIWALGIRDKKLLCIIKEMLKAPVVLPNGEKTYPARGTPQGGILSPLLANIVLNELDWWIASQWEEMPTKTKFKTRSNAQGTEIKSHAYRALRRSRLKEMHAVRYADDFKIFCATHEDAVRAYKATELWLKDRLGLEISPDKSKVVNLKRQYSDFLGFKLKVRKKGKKYVVRSHMSDKAYKKAHEKVSEEVKKLAYSSDDNAQFMQLQKYNSVVAGLHEYYCISTEVSHDFSRLAFSINKQLRNRLKGDLSKKGQLRNGFIKEKYGASRQMRFLHGRPVVPLGYVQSKNAQHKRKSINKYTVKGREQIHKNLAIDTATMLWLMRNPVKGRTIEYADNRISLYAAQYGKCAVTGIPMNSHDIHCHHKVPVSNGGSDEYANLILVSKAVHILIHASSEPTIEKYLKSLNLDNKQIEKLNKLRSMAEMPPIIL | not soluble |
| MQADFNRPVLAVDTGTSYLSLALRADGETCLFHQEVGSRQSALILPEIRTLFHDAGITAADLGAIVYAKGPGAFTGLRIGIGVAQGLATPFDTPLIGVPSLDAAASLPPPQSCILAAADARMGEVFYAWFDTLNRRRLSDYQVGRAADIRLPEGCAFSDGIGNAFALENRPPFSGKPDMPTAADFLNLAAEGGFPAVAAAHAELLYVRNKIALTAKEQAERRARLLEHHHHHH | not soluble |
| MQALGLIETRGLLPAIECADVMLKTAQVELVGRDFVGGGLVTISVTGDVGAVKAAVEAGAAAVEKISPLLLVSQHVIPRPHQEIEGMIGPSPAAKQAPPVPQPEKVKALPGFDQTTNKQTIDDFVQEFGLEPCVDALKTLPVLKLRNLAREYKGLAIAGRAISKANKEDLIQQLKEYYNQKHE | not soluble |
| MQAPVVTETCQTNEEGEQLVLRLRAPVERPRVTWGAGVIDNEHMGRLKSNCCCIYTPPRVWDDPSTWEPEEHETEHCRGHTLPEKKQKPQGGHGSDKDEDKGNCGCDHC | not soluble |
| MQARQPTVAPFDTAKLDRLMEEAGIDVIAATSKHNTQYLMGGYKFIFFAAMDAIGHSRYLPMVIYEKGAPDHSAYVGNRMEGAEHQNNPFWTPAVHTATWGTQDAAGLAVEHLKKIGKASGRIGIEPAFLPSDARDLLASRLDGARFVDATHVLERLRAVKTADELAKLRRASELITDSMLATIAAARAGSTKLEIIEQLRREETNRGLHFEYCLLTLGASHNRAGSPQAWAEGEILSIDSGGNYHGYIGDLCRMGVLGEPDAELEDLLAEVERIQQAAFAKVRAGVLGSEMIVAAEAELKASPSAAFTDFFCHGMGLITHEAPFLMTNHPVAYEGIDADKPLEAGNVISVETTMLHPKRGFIKLEDTLAITDKGYEMFGDRGRGWNRGGVLEHHHHHH | not soluble |
| MQCALYDAGRCRSCQWITQPIPEQLSAKTADLKNLLADFPVEEWCAPVSGPEQGFRNKAKMVVSGSVEKTLLGMLHRDGTPEDLCDCPLYPASFAPVFAALKPFIARAGLTPYNVARKRGELKYILLTESQSDGGMMLRFVLRSDTKLAQLRKALPWLHEQLPQLKVITVNIQPVHMAIMEGETEIYLTEQQALAERFNDVPLWIRPQSFFQTNPAVASQLYATARDWVRQLPVKHMWDLFCGVGGFGLHCATPDMQLTGIEIAPEAIACAKQSAAELGLTRLQFQALDSTQFATAQGEVPELVLVNPPRRGIGKPLCDYLSTMAPRFIIYSSCNAQTMAKDIRELPGYRIERVQLFDMFPHTAHYEVLTLLVKQ | not soluble |
| MQDVFIIGSRGLPAKYGGFETFVEELISHQSSKNIRYHVACLSDTKHKVHFDYKGADCFYLNPPKLGPARVIAYDMMAITYALSYSDQHQIQNPIFYVLGNTVGAFIAPFVKQIHNRGGRFFINPDGLEWKRSKWSRPVQAYLKFSEKQMTRQADLVISDNIGIDRYLKQVYPWSKTCFIAYGTQTQPSRLATADSKVRAYFQTFDIREKDYYLILGRFVPENNYETAIKEFMASSTKRDLVIICNHEGNAYFKQLLAETECDKDPRIKFVGTLYDKELLAYIREQAYAYIHGHEVGGTNPGLLEALAHTNLNLVLGVDFNQSVAKSAALYWTKQKGQLAELINQVDAGFDSDHLGKEAKAIIQEHYTWEKIVGEYEALFLNEH | not soluble |
| MQEIEQRIYLAATYDTKGEEAEYLRQLLRRDGVMVVTVDVATSGQGSPAMVSAQEVAACYPQGAQAVFTGERGSAIVAMALAFERYLAGQRDVGAVLGIGGSGGTALVTPAMRALPVGVPKLMVSTMASGNVAPYVGPSDIAMMYSVTDVAGLNRISRRVLANAAGAIAGAFRQARQPIADDGRPAVGITMFGVTTPCVQHVTAALHDRYDCLVFHATGTGGQSMEKLADSGLLAGVLDLTTTEVCDFLFGGVLACTDDRFGAIARSGVPYVGSCGALDMVNFGALDTVPAACRERLLYPHNPQVTLMRTTAQENARQGAWIAERLNRCEGQVRFLIPEGGVSALDAPGQAFYDEAADAALFQALYDHVRQTDRRRLVRVPCHINDPLFARAAVEQFHEISQ | not soluble |
| MQEKSKMDCHGGISGTIYEYGALTIDGEEYIPFKQYAGKYVLFVNVASYGGLTGQYIELNALQEELAPFGLVILGFPCNQFGKQEPGENSEILPTLKYVRPGGGFVPNFQLFEKGDVNGEKEQKFYTFLKNSCPPTSELLGTSDRLFWEPMKVHDIRWNFEKFLVGPDGIPIMRWHHRTTVSNVKMDILSYMRRQAALGVAENLYFQ | soluble |
